Data: patent publication US9631180B2, “Recombinant manganese oxidase” (OREGON HEALTH & SCIENCE UNIVERSITY, priority 2013, dated 2017)

Assays:
[1] = substrate: CCn1c(=NN=c2sc3cc(S(=O)(=O)O)ccc3n2CC)sc2cc(S(=O)(=O)O)ccc21; assay: purified protein, by the assay type; format: biochemical, Bacillus sp. PL-12; conditions: other: ABTS, 22° C., 420 nm
Experimental: (§1) FIG. 8B is a plot showing the initial oxidation velocity of DMP plotted against initial substrate concentration in a reaction catalyzed by the recombinant Mn oxidase complex. […]
(§2) All plots in FIGS. 8A, 8B, and 8C were fitted with either Michaelis-Menten or allosteric sigmoidal functions as appropriate.
(§3) Kinetic experiments were performed on the Molecular Devices SpectraMax® M2 microplate reader spectrophotometer at 22° C. with purified protein. […] Reactions were carried out with 10 μg Mnx (final 240 nM) 100 mM in phosphate-citrate buffer pH 3-8 and 20 mM CHES, HEPES, and MES at pH 7-10. […] These assays were performed in at least two independent trials in triplicate. Fe(II) (ferrous ammonium sulfate) oxidation was measured by quenching 200 μl reactions with 50 μl of the Fe(II) chelating colorimetric assay FerroZine® (15 mM) and a ferrous ammonium sulfate standard curve, noting the absorbance at 570 nm. Fe(II) oxidation reactions were performed with 10 μg recombinant Mn oxidase complex in 100 mM Na acetate-acetic acid buffer (pH 4-5.5). Mn(II) (MnCl2) oxidation in 20 mM HEPES (pH 7-8.5) was measured by quenching 5 μl of 200 μl reactions with 195 μl leucoberbelin blue (LBB) colorimetric reagent and reading the absorbance at 618 nm. Working LBB reagent was prepared by diluting concentrated stock (100 mg LBB in 25 ml 0.4% NaOH) 1:10 into 1% acetic acid. A KMnO4 standard curve was used to determine MnO2 oxide equivalent concentration. The metal substrate assays were performed in five independent trials then the high and low values were discarded from each concentration. The linear part of each curve was fit plotted and fit with a linear regression in GraphPad Prism®. These slopes were converted to the appropriate kinetic units, plotted, and fit with nonlinear regressions determined by comparing best fit values in the same software. KM and Vmax were determined and reported as KM and kcat=Vmax/[enzyme].

[2] = substrate: COc1cccc(OC)c1O; assay: purified protein, by the assay type; format: biochemical, Bacillus sp. PL-12; conditions: other: 2,6-DMP, pH 8, HEPES, 22° C., 468 nm, Michaelis-Menten, pH 8.0
Experimental: as §1, §2, §3

[3] = literature values for Fet3p ferroxidases, cited from earlier work; for Km: read-out: Fe(II) KM
[4] = pH 4.5, phosphate-citrate buffer, Michaelis-Menten, pH 4.5
[5] = pH 8, HEPES, allosteric sigmoidal function, pH 8.0

B1: recombinant Bacillus sp. PL-12 Mn oxidase complex (Mnx; MnxE3F3G), MnxG (SEQ ID NO: 7), MnxE (SEQ ID NO: 5) and MnxF (SEQ ID NO: 6) (Bacillus sp. PL-12) (protein)
chain: MLRKFHVVGISTRIVVNTFGDHNPNGRIYVLKENESKLKDLVRKNPYKPIDLVQPLAIRANEGDIVEILFENQLSFSAGMHFQEADYSVLSSDGADAGYNPDTTVEPGGEILYRLNVNQEGICFFTDLGNVSSTEQGSSVQGLFGALLVQKRGSSWTDPVTGGPINSGVYADIHHPFLPSFREYAWFFNDEMEIRDLTGERPLNPMTNQEAESFHGVNLRYEPMTNRKRLMEAGVVCPDCDSEEVHHDSWVFGDPATPILRGYVGDPAVIRLIHGGVKETHVFHYHVHQWLGDSSNINAEILDAQSISPQTHYSIQPLYGLGSLHGAIGDSIIHCHLYPHFGIGMWGMNRVFDTLQDGSQCYPNGVRIKALMPLPDRPEPPKPTPEKPGFPNFIPGKVGYKAPRPPLGIVGGREMTELERNAAIENPRPGAVFVDPCLDQDPVVVEFNVSAIEMPVVYNKQGWHDPKARFYVMDEDLDDILSGKKEPEPLVFHVPAGTCIRMNYTNRMPHILDGDAFQLVTRTYENGFHIHFVKFDVLACDGGNVGWNYDSAVLPGQTIRYEWYAETELKAFFFHDHLFANSHQQHGVFGAGVIQPRFSKFLDSRTGDEVDHGTQISVEHPLIPDYRDQTLFVHDFALLFDKNGRPIQPPEYPGSEDDPGVFGVNFKCEPLKFRLGEDCDPAYSFSSYVHGDPVTPILRAYEGDPIRIRLLQGAHEESHSFNIHGLRWKEERPDLGSSMKAQQHIGISESFTFETEIPASGDYLWAFEDEEDVWLGTWGLIRAYKGRMEDLIVLTDREALPEGSAETPKPTGKPPEKANPLASLPPGAYQGSPVKKFEVVAFQTPIQYNSYGDHDPYGIIFALKEDVEDILTGKKNPVPLILRANVGDLVEVTLTSELKKELFPFQDGIHPYPPVKEQSFYPPSLRISLHTSLLNYDVKTSSGDTVGYNPDQTVGPGETITYRWFVDGQFGMCSMWDMADLRNHRSFGTFGAFVAESRFTTYLDPYSLEKAITGENVILRHPLLPATREFVLILHDGVRLEDKDGKVIIDPMDGVVPDTEELEEVDTYDYGSRGFNYRSERLINRYKEHPVMHELFSSEVFGDPATPLFEAYPGEPVVMRITTPAERRRAHTFHLHGHYWKFDSKDLDSRIQSFLGHMVTGHTDDLRLIGGAGGVFNFPGDYLYRSGNIRWDIELGMWGIFRVHKDSKENLPRLEEVEGGWDNEEKA
notes: Cu-loaded; purified ~230 kDa complex of MnxG, MnxE and MnxF; MnxD not found by MS
Km [1, 4]: 456 ± 23.3 µM
kcat [1, 4]: 0.206 ± 0.0136 s⁻¹
Km [1, 5]: 3126 ± 391 µM
kcat [1, 5]: 0.0595 ± 0.00891 s⁻¹
Km [2]: 576 ± 163 µM

B2: Fet3p C. albicans: ferroxidase Fet3p from Candida albicans, described in Ziegler et al 2011 (protein, UniProt P78591 21-624, looked up)
Iron transport multicopper …: AETHTWYFKTGWVDANPDGVYPRKMIGFNDSWPLPTLRVKKGDRVQLYLINGFDNLNTTLHFHGLFVRGANQMDGPEMVTQCPIPPGETYLYNFTVTDQVGTYWYHSHTGGQYGDGMRGVFIIEDDDFPYHYDEEVVLTLSDHYHKYSGDIGPAFLTRFNPTGAEPIPQNFLFNETRNATWKVEPGKTYFVRILNVGGFVSQYLWMEDHEFTIVEIDGVYVEKNTTDLIYITVAQRYGVLITTKNSTDKNYVFMNGVDTTMLDSVPADLQVNGTNYIVYNESSALPDAYDIDSYDDALDDFYLKPLSKQKLMDDADYTITVDVQMNVLNDGINYAFFNNISYKAPKVPTLLTVLSAGEAATNELIYGTNTNSFVLQGGDIVDIVLNNFDTGKHPFHLHGHVFQLIERHEAIGSKESAVTFNVSDHAEWPEYPMIRDTVYVKPHSYMVLRFKADNPVVWFFHCHVDWHLEQGLAVVLIEDPQAIQKNEKITENHKRICEKVGVPWEGNAAANSNDYLDLKGENVQVKRLPTGFTTKGIVALVFSCVAAFLGLFSFSFYGMNDIAHVEDKVARDLDIDLEAENEDEEEAVVLNQNSSSSDSNSKPH
Fe(II) kcat [3]: 1.06 ± 0.02 s⁻¹
Km [3]: 7.9 ± 0.5 µM

B3: Fet3p S. cerevisiae: ferroxidase Fet3p from Saccharomyces cerevisiae, described in Stoj et al 2006 (protein, UniProt P38993 22-636, looked up)
Iron transport multicopper …: ETHTFNWTTGWDYRNVDGLKSRPVITCNGQFPWPDITVNKGDRVQIYLTNGMNNTNTSMHFHGLFQNGTASMDGVPFLTQCPIAPGSTMLYNFTVDYNVGTYWYHSHTDGQYEDGMKGLFIIKDDSFPYDYDEELSLSLSEWYHDLVTDLTKSFMSVYNPTGAEPIPQNLIVNNTMNLTWEVQPDTTYLLRIVNVGGFVSQYFWIEDHEMTVVEIDGITTEKNVTDMLYITVAQRYTVLVHTKNDTDKNFAIMQKFDDTMLDVIPSDLQLNATSYMVYNKTAALPTQNYVDSIDNFLDDFYLQPYEKEAIYGEPDHVITVDVVMDNLKNGVNYAFFNNITYTAPKVPTLMTVLSSGDQANNSEIYGSNTHTFILEKDEIVEIVLNNQDTGTHPFHLHGHAFQTIQRDRTYDDALGEVPHSFDPDNHPAFPEYPMRRDTLYVRPQSNFVIRFKADNPGVWFFHCHIEWHLLQGLGLVLVEDPFGIQDAHSQQLSENHLEVCQSCSVATEGNAAANTLDLTDLTGENVQHAFIPTGFTKKGIIAMTFSCFAGILGIITIAIYGMMDMEDATEKVIRDLHVDPEVLLNEVDENEERQVNEDRHSTEKHQFLTKAKRFF
Fe(II) kcat [3]: 0.835 ± 0.023 s⁻¹
Km [3]: 4.9 ± 0.8 µM
